The record followed here is publication doi:10.1101/2020.04.16.045419 (bioRxiv, 2020).

Substitutions are numbered along the chain they refer to.

Sequences and labels used below:
B1: Sb#6 (VHH)
VHH: QVQLVESGGGLVQAGGSLRLSCAASGFPVEQGRMYWYRQAPGKEREWVAAIISHGTVTVYADSVKGRFTISRDNAKNTVYLQMNSLKPEDTAVYYCYVYVGAQYWGQGTQVTVS
B2: Sb#12 (VHH)
VHH: B1 VHH with E30K, Q31A, G32S, I52Q, H54F, T56E, V59W, Y99W, A102Q, Q103E
B3: Sb#30 (VHH)
VHH: QVQLVESGGGLVQAGGSLRLSCAASGFPVTMAWMWWYRQAPGKEREWVAAIRSEGVRTYYADSVKGRFTISRDNAKNTVYLQMNSLKPEDTAVYYCNVKDYGQAHAYYDYWGQGTQVTVS
B4: Sb#35 (VHH)
VHH: QVQLVESGGGLVQAGGSLRLSCAASGFPVEHYWMEWYRQAPGKEREWVAAITSFGYRTYYADSVKGRFTISRDNAKNTVYLQMNSLKPEDTAVYYCNVKDWGFASHAYDYWGQGIQVTVS
B5: Sb#25 (VHH)
VHH: QVQLVESGGGLVQAGGSLRLSCAASGFPVHAWEMAWYRQAPGKEREWVAAIRSFGSSTHYADSVKGRFTISRDNAKNTVYLQMNSLKPEDTAVYYCNVKDFGTHHYAYDYWGQGTQVTVS
B6: Sb#36 (VHH)
VHH: B5 VHH with V29E, H30I, S56E, S57R, H59L, T103W, H104Q, Y106Q, A107E
B7: Sb#20 (VHH)
VHH: QVQLVESGGGLVQAGGSLRLSCAASGFPVEQREMEWYRQAPGKEREWVAAIDSNGNYTFYADSVKGRFTISRDNAKNTVYLQMNSLKPEDTAVYYCYVYVGKSYIGQGTQVTVS
B8: Sb#23 (VHH)
VHH: B7 VHH with E30Y, Q31A, R32A, D52S, N54Q, N56T, Y57I, F59Y, Y97F, T112S
B9: Sb#26 (VHH)
VHH: QVQLVESGGGLVQAGGSLRLSCAASGFPVNTWWMHWYRQAPGKEREWVAAITSWGFRTYYADSVKGRFTISRDNAKNTVYLQMNSLKPEDTAVYYCNVKDKGMAVQWYDYWGQGTQVTVS
B10: Sb#27 (VHH)
VHH: QVQLVESGGGLVQAGGSLRLSCAASGFPVYNTWMEWYRQAPGKEREWVAAITSHGYKTYYADSVKGRFTISRDNAKNTVYLQMNSLKPEDTAVYYCNVKDEGDMFTAYDYWGQGTQVTVS
B11: Sb#33 (VHH)
VHH: B10 VHH with Y30A, N31H, T32A, H54Y, E101T, D103T, M104Y, F105R, T106F, A107Y
B12: Sb#39 (VHH)
VHH: QVQLVESGGGLVQAGGSLRLSCAASGFPVFHVWMEWYRQAPGKEREWVAAIDSAGWHTYYADSVKGRFTISRDNAKNTVYLQMNSLKPEDTAVYYCNVKDAGNTTSAYDYWGQGTQVTVS
B13: Sb#38 (VHH)
VHH: QVQLVESGGGLVQAGGSLRLSCAASGFPVEWSHMHWYRQAPGKEREWVAAIVSKGGYTLYADSVKGRFTISRDNAKNTVYLQMNSLKPEDTAVYYCNVKDYGVHFKRYDYWGQGTQVTVI
B14: Sb#2 (VHH)
VHH: QVQLVESGGGLVQAGGSLRLSCATSGFPVYQANMHWYRQAPGKEREWVAAIQSYGDGTHYADSVKGRFTISRDNAKNTVYLQMNSLKPEDTAVYYCRAVYVGMHYFGQGTQVTVS
B15: Sb#10 (VHH)
VHH: QVQLVESGGGLVQAGGSLRLSCAASGFPVQSHYMRWYRQAPGKEREWVAAIESTGHHTAYADSVKGRFTISRDNAKNTVYLQMNSLKPEDTAVYYCTVYVGYEYHGQGTQVTVS
B16: Sb#32 (VHH)
VHH: QVQLDESGGGLVQAGGSLRLSCAASGFPVYHAWMEWYRQAPGKEREWVAAITSSGRHTYYADSVKGRFTISRDNAKNTVYLQMNSLKPEDTAVYYCNVKDAGRVYNSYDYWGQGTQVTVS
B17: Sb#28 (VHH)
VHH: QVQLVESGGGLVQAGGSLRLSCAASGFPVYHSTMFWYRQAPGKEREWVAAIYSSGQHTYYADSVKGRFTISRDNAKNTVYLQMNSLKPEDTAVYYCNVKDSGQWRQEYDYWGQGTQVTVS
B18: Sb#37 (VHH)
VHH: B17 VHH with S32A, T33Y, F35E, S54N, Q56E, Q103S, W104F, R105N, E107A
B19: Sb#21 (VHH)
VHH: QVQLVESGGGLVQAGGSLRLSCAASGFPVKHHWMFWYRQAPGKEREWVAAIKSYGYGTEYADSVKGRFTISRDNAKNTVYLQMNSLKPEDTAVYYCFVGVGTHYAGQGTQVTVS
B20: Sb#1 (VHH)
VHH: QVQLVESGGGLVQAGGSLRLSCAASGFPVRKANMHWYRQAPGKEREWVAAIMSKGEQTVYADSVEGRFTISRDNAKNTVYLQMNSLKPEDTAVYYCRVFVGWHYFGQGTQVTVS
B21: Sb#8 (VHH)
VHH: B20 VHH with R30N, K31A, A32G, M52Q, K54Y, E56R, Q57T, V59Y, E65K, W102M
B22: Sb#17 (VHH)
VHH: QVQLVESGGGLVQAGGSLRLSCAASGFPVAGRNMWWYRQAPGKEREWVAAIYSSGTYTEYADSVKGRFTISRDNAKNTVYLQMNSLKPEDTAVYYCHVWVGSLYKGQGTQVTVS
B23: Sb#31 (VHH)
VHH: QVQLVESGGGLVQAGGSLRLSCAASGFPVNSHFMEWYRQAPGKEREWVAAIQHSSGFHTYYADSVKGRFTISRDNAKNTVYLQMNSLKPEDTAVYYCNVKDTGTTEDYDYWGQGTQVTVS
B24: Sb#5 (VHH)
VHH: QVQLVESGGGLVQAGGSLRLSCAASGFPVFSGHMHWYRQAPGKEREWVAAILSNGDSTHYADSVKGRFTISRDNAKNTVYLQMNSLKPEDTAVYYCRVHVGAHYFGQGTQVTVS
B25: Sb#11 (VHH)
VHH: QVQLVESGGGLVQAGGSLRLSCAASGFPVETENMHWYRQAPGKEREWVAAIYSHGMWTAYADSVKGRFTISRDNTKNTVYLQMNSLKPEDTAVYYCEVEVGKWYFGQGTQVTVS
B26: Sb#40 (VHH)
VHH: QVQLVESGGGLVQAGGSLRLSCAASGFPVYYNWMEWYRQAPGKEREWVAAIHSNGDETFYADSVKGRFTISRDNAKNTVYLQMNSLKPEDTAVYYCNVKDIDAEAYAYDYWGQGTQVTVS
B27: Sb#13 (VHH)
VHH: QVQLVESGGGLVQAGGSLRLSCAASGFPVYASNMHWYRQAPGKEREWVAAIESQGYMTAYADSVKGRFTISRDNAKNTVYLQMNSLKPEDTAVYYCWVIVGEYYVGQGTQVTVS
B28: Sb#3 (VHH)
VHH: QVQLVESGGGLVQAGGSLRLSCAASGFPVNYKTMWWYRQAPGKEREWVAAIWSYGHTTHYADSVKGRFTISRDNAKNTVYLQMNSLKPEDTAVYYCVVWVGHNYEGQGTQVTVS
B29: Sb#9 (VHH)
VHH: QVQLVESGGGLVQAGGSLRLSCAASGFPVSSSTMTWYRQAPGKEREWVAAINSYGWETHYADSVKGRFTISRDNAKNTVYLQMNSLKPEDTAVYYCYVYVGGSYIGQGTQVTVS
B30: Sb#19 (VHH)
VHH: B29 VHH with S30N, S32H, T33E, N52Q, Y54T, W56T, E57V, H59E, G102S, I105L
B31: Sb#29 (VHH)
VHH: QVQLVESGGGLVQAGGSLRLSCAASGFPVEHEMAWYRQAPGKEREWVAAIRSMGRKTLYADSVKGRFTISRDNAKNTVYLQMNSLKPEDTAVYYCNVKDFGYTWHEYDYWGQGTQVTVS
B32: Sb#46 (VHH)
VHH: QVQLVESGGGLVQAGGSLRLSCAASGFPVDNGYMHWYRQAPGKEREWVAAIDSYGWHTIYADSVKGRFTISRDNAKNTVYLQMNSLKPEDTAVYYCNVKDKGQMRAAYDYWGQGTQVTVS

This assay has as its target SARS-CoV-2 RBD construct consisting of residues Pro330-Gly526 fused to Venus YFP (RBD-vYFP) (SARS-CoV-2, UniProt P0DTC2).
In the case of B1, the binding result was “binds”.
The result for B2 reads “binds”.
As to B3, the binding result was “binds”.
As for B4, the binding result was “binds”.
Turning to B5, the binding result was “binds”.
The result for B6 reads “binds”.
The result for B7 reads “binds”; that for B8, “binds”.
The result for B9 reads “binds”; that for B10, “binds”; that for B11, “binds”.
Take B12: the binding result is given as “binds”.
The result for B13 reads “binds”; that for B14, “binds”.
The same measure for B15: “binds”.
The result for B16 reads “binds”; that for B17, “binds”; that for B18, “binds”.
In the case of B19, the binding result is “binds”.
The result for B20 reads “binds”; that for B21, “binds”.
The same measure for B22: “binds”; for B23: “binds”; for B24: “binds”.
As for B25, the binding result was “binds”.
The same measure for B26: “binds”; for B27: “binds”.
The same measure for B28: “binds”; for B29: “binds”; for B30: “binds”.
The same measure for B31: “binds”; for B32: “binds”.
